Measurements: patent US20130078247A1 (Boehringer Ingelheim, published 2013)

Assays:
[1] = target: T1, human DLL4, full length, overexpressed on CHO or HEK293 cells (human, UniProt Q9NR61 27-685); assay: periplasmic extract; FMAT, Notch1/Fc on CHO-hDLL4
T1 construct: also called CHO-hDLL4; CHO-hDII4
From the text: (§1) All calculations are based on the FL1_total signal which comprises the average of the fluorescence per well times the number of counts per well.

[2] = target: T2, mouse DLL4, full length, overexpressed on CHO or HEK293 cells (mouse, UniProt Q9JI71 27-686); assay: periplasmic extract; FMAT, Notch1/Fc on CHO-mDLL4
T2 construct: whole, on cells; also called CHO-mDLL4; CHO-mDII4
From the text: as §1

[3] = target: T3, recombinant human DLL4 (human, UniProt Q9NR61 25-522); assay: ProteOn off-rate screen, periplasmic extract, hDLL4 on chip
T3 construct: R&D Systems C-terminally His-tagged extracellular domain; also called rhDLL4; hDLL4; not shown: C-terminal His tag
Procedure: (§2) In a first cycle, amino acid substitutions are introduced randomly in both framework (FW) and complementary determining regions (CDR) using the error-prone PCR method. […] After a polish step, PCR products are inserted via unique restriction sites into a vector designed to facilitate phage display of the VHH library. […] No selections on murine DLL4 are included as (conservation of) cross-reactivity is assessed at the screening level. Individual mutants are produced as recombinant protein using an expression vector derived from pUC119, which contains the LacZ promoter, a resistance gene for ampicillin, a multiple cloning site and an ompA leader sequence (pAX50). E. coli TG1 cells are transformed with the expression vector library and plated on agar plates (LB+Amp+2% glucose). Single colonies are picked from the agar plates and grown in 1 mL 96-deep-well plates. VHH expression is induced by adding IPTG (1 mM). Periplasmic extracts (in a volume of ˜80 uL) are prepared according to standard methods and screened for binding to recombinant human and mouse DII4 in a ProteOn (BioRad, Hercules, Calif., USA) off-rate assay. […] Periplasmic extract of affinity matured clones is diluted 1/10 and injected across the “analyte channels” A1-A6. An average off-rate is calculated of the wild type clones present in the plate and served as a reference to calculate off-rate improvements.

[4] = target: T4, recombinant mouse DLL4 (mouse, UniProt Q9JI71 27-532); assay: ProteOn off-rate screen, periplasmic extract, mDLL4 on chip
T4 construct: extracellular domain; also called rmDLL4; mDLL4; not shown: C-terminal His tag
Procedure: as §2

T2 sequence (Q9JI71 27-686): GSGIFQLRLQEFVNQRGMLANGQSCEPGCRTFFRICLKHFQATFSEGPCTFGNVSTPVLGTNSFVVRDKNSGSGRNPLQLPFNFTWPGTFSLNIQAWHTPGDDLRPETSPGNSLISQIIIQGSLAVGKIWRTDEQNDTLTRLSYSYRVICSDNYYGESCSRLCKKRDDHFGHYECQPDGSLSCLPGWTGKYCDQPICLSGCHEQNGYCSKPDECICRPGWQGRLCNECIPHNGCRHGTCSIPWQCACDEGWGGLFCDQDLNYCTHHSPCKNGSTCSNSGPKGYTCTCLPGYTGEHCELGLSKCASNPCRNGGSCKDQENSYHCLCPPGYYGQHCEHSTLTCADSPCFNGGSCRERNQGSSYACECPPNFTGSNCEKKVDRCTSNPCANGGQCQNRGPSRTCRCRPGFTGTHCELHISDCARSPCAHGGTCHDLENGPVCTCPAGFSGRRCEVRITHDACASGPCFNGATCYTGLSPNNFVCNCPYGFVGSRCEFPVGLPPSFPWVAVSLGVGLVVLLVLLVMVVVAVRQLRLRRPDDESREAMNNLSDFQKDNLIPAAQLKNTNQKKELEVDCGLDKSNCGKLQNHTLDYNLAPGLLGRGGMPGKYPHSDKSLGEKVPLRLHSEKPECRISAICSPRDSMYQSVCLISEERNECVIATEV
T4 sequence (Q9JI71 27-532): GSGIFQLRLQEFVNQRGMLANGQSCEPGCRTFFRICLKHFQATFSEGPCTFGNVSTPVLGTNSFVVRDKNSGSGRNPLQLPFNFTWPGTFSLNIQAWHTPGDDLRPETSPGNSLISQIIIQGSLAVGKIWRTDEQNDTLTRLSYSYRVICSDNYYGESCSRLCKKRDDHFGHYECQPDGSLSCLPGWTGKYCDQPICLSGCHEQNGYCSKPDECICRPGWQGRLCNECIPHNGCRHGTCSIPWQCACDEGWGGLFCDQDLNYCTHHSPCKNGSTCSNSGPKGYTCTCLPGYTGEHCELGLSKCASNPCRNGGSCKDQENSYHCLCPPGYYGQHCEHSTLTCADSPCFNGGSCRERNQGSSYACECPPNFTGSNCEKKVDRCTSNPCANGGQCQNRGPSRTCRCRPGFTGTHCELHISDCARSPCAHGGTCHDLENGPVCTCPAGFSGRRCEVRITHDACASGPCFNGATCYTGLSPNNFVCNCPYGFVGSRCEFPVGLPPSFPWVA

Binder | % inhibition [1] [%] | % inhibition [2] [%] | fold (off-rate improvement over DLLBII101G08) [3] [fold] | fold (off-rate improvement over DLLBII101G08) [4] [fold]
DLLBII102F08 (VHH, also called DLLBII102F8; not shown: C-terminal c-myc and His6 tags) VHH: EVQLVESGGGLVQTGDSLRLSCAASGSTFSNYRMGWFRQGPGKEREFVAAIGRNGQNTYYTDSVKGRFTVTRDNAKNMVYLQMNSLKPEDSAVYTCAASLRGWDTTRIDYEYWGQGTQVTVSS | 85 | 75 | – | –
DLLBII101F01 (VHH, also called DLLBII101F1; not shown: C-terminal c-myc and His6 tags) VHH: EVQLVESGGGLVQAGGSLRLSCAASGRTFSNYAMGWFRQAPGKEREFVAAISWSGGDTYYADSVKGRFTISRDNAKNTVCLQMNSLKPEDTAVYYCAASFQSGAAPGANFYDYWGQGTQVTVSS | 85 | 78 | – | –
DLLBII80E08 (VHH, also called DLLBII80E8; not shown: C-terminal c-myc and His6 tags) VHH: EVQLVESGGGLVQAGGSLTLSCAASGGTFTTYAMGWFRQAPGKEREFVAAVSRFGVSWDYADSVKGRFTISRDNTANTLKLRMNSLKADDTAVYYCAAGGRSFLPFVPAYWGQGTQVTVSS | 71 | 82 | – | –
DLLBII95F02 (VHH, also called DLLBII95F2; not shown: C-terminal c-myc and His6 tags) VHH: EVQLVESGGGSVQAGGSLRLSCAASGRTFSSYAMGWFRQAPGKEREFVAAINWSGGYTYYADSVRGRFTISRDNAKNTVYLQMNSLKPEDTAVYYCAAPAPGSSGYEYDYWGQGTQVTVSS | 81 | 71 | – | –
DLLBII61F05 (VHH, also called DLLBII61F5; not shown: C-terminal c-myc and His6 tags) VHH: EVQLVESGGGLVQPGGSLRLSCTASGFTFSSYAMSWVRQAPGKGLEWVSFINKDGSDTGYADSVKGRFTISRDNAKNTMYLQMNSLKPEDTAVYFCETRTSRSPRPRGQGTQVTVSS | 74 | 76 | – | –
DLLBII47D01 (VHH, also called DLLBII47D1; not shown: C-terminal c-myc and His6 tags) VHH: EVQLVESGGGLVQPGGSLRLSCAASGFTFDDYAIGWFRQAPGKEREGVSCISSSGSTYYADSVKGRFTISRDNAKNTVYLQMNSLKPEDTAVYYCAIAGASSWCFPPGYWGQGTQVTVSS | 87 | – | – | –
DLLBII101H09 (VHH, also called DLLBII101H9; DLL1BII101H09; not shown: C-terminal c-myc and His6 tags) VHH: EVQLVESGGGLVQPGGSLRLSCAASGFTLGYYTIVWFRQAPGKERKGVSCISSRDGSRYYADSVKGRFTISRDNAKNTVYLRMNSLKPEDTAVYYCAAGPDCSSYDYWGQGTQVTVSS | 87 | 75 | – | –
DLLBII101H05 (VHH, also called DLLBII101H5; not shown: C-terminal c-myc and His6 tags) VHH: EVQLVESGGGSAQAGGSLRLSCAASGRTSSTYAMGWFRQAPGKEHEFVSAIGRGTGATSYGDSVKGRFTISRDNAKNTVYLQMNSLQLEDTGDYYCVAGRGFYHDYSSYEYRGQGTQVTVSS | – | 83 | – | –
DLLBII58A11 (VHH, not shown: C-terminal c-myc and His6 tags) VHH: EVQLVESGGGLVQAGGSLRLSCTTSERTVSRYSMGWFRQAPGKEREAVATISWSGDSTYYADSVKGRFTISRDNTKNTLYLQIDSLKPEDTAVYYCVAKPNLKYGSYWPPRGYDYWGQGTQVTVSS | 95 | 73 | – | –
DLLBII102G04 (VHH, also called DLLBII102G4; not shown: C-terminal c-myc and His6 tags) VHH: EVQLMESGGGLVQPGGSLRLSCAASGFTFSSYAMSWVRQAPGKGLEWVSRITSGGRTTYRDSVKGRFTISRDNSKNTLYLQMNSLKPEDTALYYCAKARGDIDVYTLSDSRGQGTQVTVSS | 86 | 82 | – | –
DLLBII104A03 (VHH, also called DLLBII104A3; not shown: C-terminal c-myc and His6 tags) VHH: EVQLVESGGGLVQAGGSLRLSCAASGDIPRIAAMGWYRQAPGKQRELVATVSNAATTRYADSAKGRFTISRDNAKTVSLQMDNLKPEDTGVYYCYSLATTVTPSWVNYWGQGTQVTVSS | 86 | 83 | – | –
DLLBII83G01 (VHH, also called DLLBII83G1; not shown: C-terminal c-myc and His6 tags) VHH: EVQLVESGGGLVQAGGSLRLSCAASGRTFSNYIMGWFRQAPGKEREFVAGISRYADYTGYADSVKGRFTISRDNVKNTVYLRMNSLKPDDTAVYYCAANEGYCSGYGCYEDSGQYDYWGQGTQVTVSS | 87 | 93 | – | –
DLLBII61F07 (VHH, also called DLLBII61F7; not shown: C-terminal c-myc and His6 tags) VHH: EVQLVESGGGLVQAGGSLRLSCAASGRTFSRYAMGWFRQAPGKEREFVAAINWSGGSTYYADSVKGRFTISRDNAKNTVYLQMNSLKPEDTAVYDCAASNYYSVYDDRPVMDYWGQGTQVTVSS | 79 | 77 | – | –

The next lines start with the values.

% inhibition [1] [%] | % inhibition [2] [%] | fold (off-rate improvement over DLLBII101G08) [3] [fold] | fold (off-rate improvement over DLLBII101G08) [4] [fold] | Binder
80 | 85 | – | – | DLLBII112E07 (VHH, also called DLLBII112E7; not shown: C-terminal c-myc and His6 tags) VHH: EVQLVESGGGLVQAGGSLRLSCAASGRTVRSYATGWFRQAPGKEREFVAALRWSIGSIASVYYDDSVKGRFTISGDNAENTVYLQMNALKPEDTAIYYCASTTRGRYSALSASAYDYWGQGTQVTVSS
87 | 83 | – | – | DLLBII104C04 (VHH, also called DLLBII104C4; not shown: C-terminal c-myc and His6 tags) VHH: EVQLVESGGGLVQAGGSLRLSCAAAGSTFSSYVMGWYRQAPGKQRELVAHISTRGITYYADSVKGRFTISRDNAKNTMYLQMNSLKPEDTAVYYCNTRRNFLSNYWGQGTQVTVSS
– | – | 19 | 18 | DLLBII129A03 (VHH, not shown: C-terminal c-myc tag and (His)6 tag) VHH: EVQLVESGGGLVQAGGSLRLSCAASGRTFSSYAMAWFRQAPGKEREYVAAIRWSGGTAYYADSVQGRFTISRDNAKNTVYLQMNSLRPEDTAVYYCANRAPDTRLRPYLYDYWGQGTQVTVSS
– | – | 26 | 26 | DLLBII129D01 (VHH) VHH: EVQLVESGGGLVQAGGSLRLSCAASGRTFSSYAMAWFRQAPGKEREYVAAIRWSGGTAYYADSVQSRFTITRDNAKNTVYLQMNSLKPEDTAVYYCANRAPDTRLEPYLYDHWGQGTQVTVSS
– | – | 30 | 26 | DLLBII129B02 (VHH) VHH: EVQLVESGGGLVQAGGSLSLSCAASGRTFSSYAMAWYRQAPGKEREYVAAIRWSGGTAYYADSVQGRFTISRDNAKNTVYLQMNSLKPEDTAVYYCANRAPDTRLEPYEYDHWGQGTQVTVSS
– | – | 26 | 20 | DLLBII129G09 (VHH) VHH: EVQLVESGGGLVQAGGSLRLSCAASGRTFSSYAMAWYRQAPGKEREYVAAIRWSGETAYYADSVQGRFTISRDNAKNTVYLQMNSLKPEDTAVYYCANRAPDTRLEPYLYDHWGQGTQVTVSS
– | – | 21 | 24 | DLLBII129E07 (VHH) VHH: EVQLVESGGGLVQAGGSLRLSCSASGRTFSSYAMAWYRQAPGKEREYVAAIRWSGGTAYYPDSVQGRFTISRDNAKNTVYLQMNSLKPEDTAVYYCANRAPDTRLAPYEYDHWGQGTQVTVSS
– | – | 31 | 26 | DLLBII129G10 (VHH) VHH: EVQLVESGGGLVQAGGSLRLSCAASGRTFSSYAMAWYRQAPGKEREYVAAIRWSGGTAYYADSVQSRFTISRDNAKNTVYLQMNSLKPEDTAVYYCANRAPDTRLEPYEYDHWGQGTQVTVSS
– | – | 20 | 18 | DLLBII129E03 (VHH) VHH: EVQLVESGGGLVQAGGSLRLSCAASGRTFSSYAMAWFRQAPGKDREYVAAIRWSGGTAYYADSVQGRFTISRDNAKNTVYLQMNSLKPEDTAVYYCANRAPDTRLAPYLYDYWGQGTQVTVSS
75 | 80 | – | – | DLLBII107C03 (VHH, also called DLLBII107C3; not shown: C-terminal c-myc and His6 tags) VHH: EVQLVESGGGLVQPGGSLRLSCEVSGSIGSVSDMRWYRQAPGLQYELVARITSGSITDYSDSVKGRFTISRDNAKNTVYLQMNSLKPEDTAVYYCNADVQHSAWLKPLTYWGQGTQVTVSS
72 | 97 | – | – | DLLBII112A03 (VHH, also called DLLBII112A3; not shown: C-terminal c-myc and His6 tags) VHH: EVQLVESGGGLVQPGGSLRLSCAASGIRFSINGMGWYRQAPGKQREAVATITRGGIRDYTDSVKGRFTISRDIARNTVYLQMNNLKPEDSAVYYCNIDIYWGRGTQVTVSS
86 | 78 | – | – | DLLBII104B05 (VHH, also called DLLBII104B5; DLLBII1040B05; not shown: C-terminal c-myc and His6 tags) VHH: EVQLVESGGGSVQAGGSLRLSCAASGSISRIDVMAWYRQAPGKERELVASISSGGSTNYADSVKGRFTISREYFKNMMYLQMNSLKFEDTAVYYCNADSRRGGVGNFFRSWGQGTQVTVSS
75 | 90 | – | – | DLLBII112A04 (VHH, also called DLLBII112A4; not shown: C-terminal c-myc and His6 tags) VHH: EVQLVESGGGLVQAGGSLRLSCAAFGRTPYGMGWFRQAPGKEREFVAAITSDGSTNYADSVKGRFTISRDNAKNAVSLQMNSLKPEDTAVYYCTAPYYSDFEGTTTEYDYWGQGTQVTVSS
